Measurements published in patent US5633227, “Secretory leukocyte protease inhibitor as an inhibitor of tryptase” (Miles, Inc., dated 1997).

Tests used:
[1] = molecular target: T1, bovine trypsin (bovine, UniProt P00760); test: GPK-AMC enzyme inhibition assay, Dixon plot, bovine trypsin
Procedure: (§1) Inhibitory activity against tryptase and bovine trypsin was measured using Gly-Pro-Lys-aminomethylcoumarin as a substrate. The reaction was performed in assay buffer that consisted of 0.1M Tris (pH 8.0), 1 µg/ml heparin, 0.02% Triton X-100, with 20 mM CaCl_2 included only in the trypsin assays. The amount of coumarin produced was determined by measuring the fluorescence (ex=370 nm, em=432 nm) on a Perkin-Elmer LS-50B fluorimeter. To measure tryptase activity, 12 µl of a 1 nM solution of tryptase (tetramer) was incubated with either the N- (34 to 650 nM final) or the C-terminal (7–150 nM final) domain of SLPI in 1.0 ml of assay buffer for 5 minutes at 37° C. The reaction was started by the addition of the substrate GPK-AMC (20 or 40 µM final) and the increase in fluorescence was measured over a 2 minute period. In order to measure trypsin activity, 3.3 µl of a 10 µg/ml solution was incubated with either the N- or C- terminal domains of SLPI, and assayed using both 10 and 20 µM GPK-AMC. To determine K_i values, Dixon plots of the form 1/V vs [I] were constructed. These are shown in FIG. 8, and the results are listed in Table V. The K_i values for the inhibition of the tryptase catalyzed cleavage of GPK-AMC by the N- and C-terminal domains were determined to be 290 nM and 4.8 nM, respectively (FIG. 8).

[2] = molecular target: T1, bovine trypsin; test: GPK-AMC enzyme inhibition assay with bovine trypsin
Procedure: as §1

Binder | Ki [1] [nM] | binding result [2]
SGKSFKAGVCPPKKSAQCLRYKKPECQSDWQCPGKKRCCPDTCGIKCLD (other) [N-terminal domain of SLPI (amino acids 1-49)] | > 1800 | no binding (tested: 1800 nM)
C-terminal domain of SLPI (amino acids 50-107) (other) PVDTPNPTRRKPGKCPVTYGQCLMLNPPNFCEMDGQCKRDLKCCMGMCGKSCVSPVKA | 130 | –
